From patent US8158579B2, “Fusion protein of an exendin to modified transferrin” (BioRexis Pharmaceutical Corporation, priority 2006, dated 2012)

T1: rat GLP-1 receptor (Rattus norvegicus, UniProt P32301)
T1 construct: expressed in transfected cells; host or cells: CHO (CHO-GLP-1R)
T1 sequence (P32301 22-463): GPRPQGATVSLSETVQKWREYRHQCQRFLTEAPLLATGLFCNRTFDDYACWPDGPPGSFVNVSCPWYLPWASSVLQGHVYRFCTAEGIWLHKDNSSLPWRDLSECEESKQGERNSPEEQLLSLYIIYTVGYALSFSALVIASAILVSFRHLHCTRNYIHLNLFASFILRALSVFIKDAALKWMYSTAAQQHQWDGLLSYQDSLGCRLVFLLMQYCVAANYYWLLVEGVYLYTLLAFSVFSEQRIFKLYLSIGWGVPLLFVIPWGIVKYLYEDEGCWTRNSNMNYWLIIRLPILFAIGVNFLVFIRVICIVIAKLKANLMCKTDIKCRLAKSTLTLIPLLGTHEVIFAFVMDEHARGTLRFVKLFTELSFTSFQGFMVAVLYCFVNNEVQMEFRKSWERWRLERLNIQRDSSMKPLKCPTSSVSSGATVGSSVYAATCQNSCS

B1: pREX0658: exendin-4(1-31) fragment fused via (PEAPTD)2 linker to mTf (SEQ ID NO: 17) (protein)
chain: HGEGTFTSDLSKQMEEEAVRLFIEWLKNGGPPEAPTDPEAPTDVPDKTVRWCAVSEHEATKCQSFRDHMKSVIPSDGPSVACVKKASYLDCIRAIAANEADAVTLDAGLVYDAYLAPNNLKPVVAEFYGSKEDPQTFYYAVAVVKKDSGFQMNQLRGKKSCHTGLGRSAGWNIPIGLLYCDLPEPRKPLEKAVANFFSGSCAPCADGTDFPQLCQLCPGCGCSTLNQYFGYSGAFKCLKDGAGDVAFVKHSTIFENLANKADRDQYELLCLDNTRKPVDEYKDCHLAQVPSHTVVARSMGGKEDLIWELLNQAQEHFGKDKSKEFQLFSSPHGKDLLFKDSAHGFLKVPPRMDAKMYLGYEYVTAIRNLREGTCPEAPTDECKPVKWCALSHHERLKCDEWSVNSVGKIECVSAETTEDCIAKIMNGEADAMSLDGGFVYIAGKCGLVPVLAENYNKADNCEDTPEAGYFAVAVVKKSASDLTWDNLKGKKSCHTAVGRTAGWNIPMGLLYNKINHCRFDEFFSEGCAPGSKKDSSLCKLCMGSGLNLCEPNNKEGYYGYTGAFRCLVEKGDVAFVKHQTVPQNTGGKNPDPWAKNLNEKDYELLCLDGTRKPVEEYANCHLARAPNHAVVTRKDKEACVHKILRQQQHLFGSNVADCSGNFCLFRSETKDLLFRDDTVCLAKLHDRNTYEKYLGEEYVKAVGNLRKCSTSSLLEACTFRRP
B2: pREX0659: exendin-4(1-30) fragment fused via (PEAPTD)2 linker to mTf (SEQ ID NO: 17) (protein)
chain: HGEGTFTSDLSKQMEEEAVRLFIEWLKNGGPEAPTDPEAPTDVPDKTVRWCAVSEHEATKCQSFRDHMKSVIPSDGPSVACVKKASYLDCIRAIAANEADAVTLDAGLVYDAYLAPNNLKPVVAEFYGSKEDPQTFYYAVAVVKKDSGFQMNQLRGKKSCHTGLGRSAGWNIPIGLLYCDLPEPRKPLEKAVANFFSGSCAPCADGTDFPQLCQLCPGCGCSTLNQYFGYSGAFKCLKDGAGDVAFVKHSTIFENLANKADRDQYELLCLDNTRKPVDEYKDCHLAQVPSHTVVARSMGGKEDLIWELLNQAQEHFGKDKSKEFQLFSSPHGKDLLFKDSAHGFLKVPPRMDAKMYLGYEYVTAIRNLREGTCPEAPTDECKPVKWCALSHHERLKCDEWSVNSVGKIECVSAETTEDCIAKIMNGEADAMSLDGGFVYIAGKCGLVPVLAENYNKADNCEDTPEAGYFAVAVVKKSASDLTWDNLKGKKSCHTAVGRTAGWNIPMGLLYNKINHCRFDEFFSEGCAPGSKKDSSLCKLCMGSGLNLCEPNNKEGYYGYTGAFRCLVEKGDVAFVKHQTVPQNTGGKNPDPWAKNLNEKDYELLCLDGTRKPVEEYANCHLARAPNHAVVTRKDKEACVHKILRQQQHLFGSNVADCSGNFCLFRSETKDLLFRDDTVCLAKLHDRNTYEKYLGEEYVKAVGNLRKCSTSSLLEACTFRRP

Target: T1, rat GLP-1 receptor
Assay: cAMP potency assay in CHO cells transfected with the rat GLP-1 receptor (CHO-GLP-1R)
Assay type: cell-based
Settings: cAMP accumulation in CHO-GLP-1R cells
Experimental: 96-well tissue culture plates were seeded with CHO-GLP-1R cells and cultured overnight. The following day, the cells were rinsed with Krebs-Ringer buffer (KRB) and incubated in KRB containing the phosphodiesterase inhibitor 3-isobutyl-1-methylxanthine (IBMX, 2 mM) to inhibit intracellular enzymes that process cAMP. Serial dilutions of test compounds and controls were prepared in KRB/IBMX and triplicate wells of cells were inoculated with samples and controls. After incubation, individual sample lysates were then assayed to measure the increase in intracellular cAMP levels using a competition-based fluorescent immunoassay (CatchPoint® cAMP Fluorescent Assay Kit, Molecular Devices Corp., Sunnyvale, Calif.).

Row | Molecule | EC50
1 | B1 | 0.33 nM
2 | B2 | 0.85 nM
